Assay results published in the supplement of paper PMC10567573.

B1: C1orf137 (parent)
chain: RQHHHQSSFPGSLPQETNLTLKVC
B2: RIPK4 (parent)
chain: VSVNAQTLDGRTPLHLAAQRGHYR

Variants of: B1
Assay: protein stability index of a GFP-peptide fusion (GPS, HEK-293T) (PSI 1-6); higher = more stable
Conditions: c terminus: a fixed tail appended
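Note: lentivirally expressed fusions sorted by FACS into six bins by GFP to DsRed ratio, PSI derived from sequencing read proportions per bin multiplied by bin number.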

Protein stability index of substitutions, site by site:
H5: G 2.81 | E 3.97 | C 3.25 | N 2.91 | S 2.51 | A 3.06 | I 2.66 | Q 2.65 | M 2.63 | P 2.9 | F 2.33 | L 2.73 | K 2.34 | D 3.36 | R 3.64
Q2: V 2.47 | L 2.4 | N 2.62 | E 2.59 | K 2.31 | H 2.27 | W 2.58 | A 2.67 | I 2.28 | T 3.45 | G 3.57 | M 2.88 | R 3.04 | S 2.43 | D 3.06 | Y 2.63 | F 3.96 | P 2.77 | C 2.04
R1: F 1.63 | M 2.87 | W 3.5 | T 3.12 | S 3.4 | C 1.97 | A 2.7 | P 2.79 | L 2.44 | V 3.05 | K 2.88 | N 2.7 | H 3.2 | I 3.28 | Y 2.07 | Q 3.44 | E 3.58 | G 3.69 | D 3.79
H4: E 3.15 | A 2.94 | I 2.34 | N 3.14 | W 2.87 | T 3.36 | G 3.52 | Y 2.89 | R 1.94 | L 3.13 | K 3.26 | P 3.19 | M 2.37 | F 2.74 | Q 3.9 | D 3.56 | C 2.87 | V 2.82 | S 2.96
H3: G 3.11 | N 2.75 | M 3.25 | T 3.13 | A 2.84 | F 2.04 | S 3.36 | K 3.31 | V 3.09 | Q 3.06 | C 2.54 | D 2.87 | Y 2.57 | E 3.69 | R 2.88 | P 2.77 | L 2.34 | I 3.06

Variants of: B2
Assay: as above
Conditions: c terminus: a fixed tail appended

Protein stability index, by site and new letter:
R24: L 2.13 | C 2.2 | T 2.99 | D 3.3 | M 2.87 | E 2.87 | K 3.11 | P 3.08 | F 2.41 | G 3.1 | V 2.43 | N 2.98 | S 3.01 | Y 2.66 | W 2.48 | A 2.81 | H 2.69 | I 2.05 | Q 2.82
R20: V 2.85 | L 2.13 | E 3.43 | G 2.96 | D 3.62 | Q 3.12 | C 2.69 | S 2.65 | A 3.02 | Y 2.41 | I 2.58 | T 2.85 | H 2.53 | P 2.95 | N 2.71 | K 3 | F 2.14 | W 2.5 | M 2.29
G21: H 3.26 | C 2.44 | T 2.88 | D 2.86 | V 2.93 | Y 2.81 | P 3.49 | F 2.34 | R 3.47 | I 2.24 | N 2.88 | L 2.94 | A 2.77 | E 3.58 | M 2.68 | Q 3.35 | W 2.05 | S 2.66 | K 3.33
H15: W 2.62 | D 3.93 | V 3.2 | C 3.01 | I 2.79 | S 3.74 | N 3.64 | M 2.78 | A 3.79 | R 3.89 | F 2.58 | Y 2.56 | P 3.94 | Q 4.11 | T 3.73 | G 3.08 | K 3.24 | E 3.49 | L 3.24
H22: D 3.23 | C 2.98 | K 3.89 | M 2.96 | Q 3.56 | Y 2.47 | R 4.29 | G 4.53 | I 2.83 | N 3.48 | P 2.89 | W 2.23 | F 2.96 | A 3.3 | L 2.69 | E 3.27 | V 3.79 | T 3.57 | S 3.29
A17: P 3.67 | E 3.22 | L 3.02 | R 3.11 | V 3.35 | F 2.26 | G 3.51 | M 3.31 | W 2.45 | Y 2.54 | D 3.33 | K 3.41 | S 3.34 | N 3.38 | C 3.15 | H 3.27 | Q 3.36 | I 2.45 | T 3.45
L14: C 1.96 | R 3.7 | T 3.5 | M 3.26 | S 3.83 | K 3.96 | Q 3.75 | I 3.39 | D 3.62 | N 3.92 | A 4.07 | Y 3.21 | F 3.1 | W 2.88 | E 4.47 | V 3.4 | P 4 | G 3.52 | H 3.96
Q19: F 1.94 | C 2.97 | I 2.59 | P 2.67 | V 2.28 | H 3.27 | E 3.18 | G 3.53 | S 3.08 | R 4.04 | N 3.41 | T 3.58 | K 3.95 | L 2.52 | W 2.12 | M 2.88 | A 3.44 | Y 2.63 | D 3.12
L16: F 3.11 | G 3.45 | Q 3.83 | W 3.09 | D 3.8 | K 3.88 | A 3.82 | I 3.42 | C 3.19 | Y 3.45 | T 3.64 | E 4.29 | P 3.73 | R 3.96 | N 3.97 | V 3.5 | M 3.34 | H 3.28 | S 4.04
T12: I 3.1 | E 3.58 | P 3.54 | Y 2.4 | R 3.23 | H 2.68 | N 2.96 | V 3.13 | S 3.35 | W 2.82 | L 2.89 | K 3.72 | Q 3.57 | F 2.61 | M 3.19 | G 3.05
A18: K 2.58 | P 3.21 | T 3.08 | G 3.5 | E 3.13 | Y 2.19 | I 2.75 | D 3.31 | H 3.13 | F 1.89 | R 3.32 | V 2.97 | C 2.61 | N 3.46 | Q 3.29 | L 2.64 | W 2.09 | S 3.38 | M 2.42
Y23: H 3.42 | C 3.43 | R 4.19 | K 4.12 | D 4.49 | T 4.12 | Q 3.96 | L 3.51 | P 4.11 | G 4.25 | M 4.03 | N 4.17 | I 3.39 | E 4.39 | W 3.07 | S 3.83 | V 4 | F 2.98 | A 3.92
P13: K 2.78 | F 2.34 | L 2.25 | V 2.84 | M 2.42 | T 2.92 | E 3.26 | W 1.75 | Y 1.93 | S 3.3 | A 3.33 | D 3.56 | I 2.17 | H 2.9 | N 3.38 | Q 3.15 | G 2.94 | C 2.22 | R 3.1
